Results as given in patent US20150010566A1.

B1: AT10-004 (antibody, V domains shown)
VH: QVQLVQSGAEVRKPGASVKVSCKASGYTFTRHGISWVRQAPGQGLEWMGWISAYTGDTDYAQKFQGRVTMTTDTSTNTAYMELRSLRSDDAAVYYCARLRLQGEVVVPPSQSNWFDPWGQGTLVTVSS
VL: EIVLTQSPATLSLYPGERATLSCRASQSVSRYLAWYQQKPGQAPRLLIYDASNRATGIPARFSGSGSGTDFTLTISSLEPEDFAVYYCQQRSNWLKITFGQGTRLEIKG
B2: AT10-003 (antibody, V domains shown)
VH: QVHLVQSGAEVRKPGASVKVSCKVSGYTLNELSIHWLRQAPGRGLEWMGSFDPEDGETIYAQKFQGRVTMTGDTSTDTAYLELTSLRSEDTALYYCARGWGAVTSPFDFWGQGTLVTVSS
VL: DIVMTQSPLSLPVTPGEPASISCRSSQSLLHSNGHIYFDWYLQKPGQSPQLLIYLVSKRASGVPDRFSGSGSGTDFTLKISRVEAEDVGVYYCMQALETPFTFGPGTKVHIKR
B3: AT10-002 (antibody, V domains shown)
VH: QLQLQESGPRLVKPSETLSLTCSVSGVSISSSNYYWGWIRQPPGKGLEWIGTIYHSGSTYYNPSLKSRLIISVDTSKNQFYLQLTSLTAADSAVYYCATGGGFGWSQTYFGYWGQGTLVTASS
VL: QSALTQPASVSGSPGQSITISCTGTSSDVGAYNYVSWYQHHPGKAPKLMIYDVTYRPSGVSTRFSGSKSGNTASLTISGLQAEDEADYYCSSQSRSSTLVIFGGGTKLTVLG
B4: AT10-001 (antibody, V domains shown)
VH: EVQLLESGGGLVQPGGSLRLSCAASGFSFSTYAMSWVRQAPGKGLEWVSGISGSGESTYYADSVKGRFTVSRDNSKNTLYLQMNSLRAEDTAVYYCAKQGDHIAWLLRGINFDYWGQGVLVTVSS
VL: EIVLTQSPGTLSLSPGERATLSCRASQSVSSSYLAWYQQKPGQAPRLLIYGASTRATGIPDRFSGRGSGTDFTLTISSLEPEDFAVYYCQNYGSPFLFTFGPGTKVDIKR

Molecular target: HA of Influenza H1N1 (A/Hawaii/31/2007), on infected MDCK-SIAT cells or on virus (Influenza A virus H1N1 A/Hawaii/31/2007)
Assay: cell-based or functional assay

B1 and B2 cannot be ordered by IC50, in vitro virus neutralization on MDCK-SIAT cells: greater than 50 mg/L for the first, greater than 15 mg/L for the second.

For B3, the IC50, in vitro virus neutralization on MDCK-SIAT cells was greater than 15 mg/L.

Molecular target: HA of H3N2 HKX-31 virus (Influenza A virus H3N2 HKX-31)
Assay: cell-based or functional assay

B1 showed an IC50, in vitro virus neutralization on MDCK-SIAT cells of 0.017 mg/L.

Molecular target: HA of Influenza H1N1 (A/Neth/602/2009), on infected MDCK cells or on virus (Influenza A virus H1N1 A/Neth/602/2009 (host Human))
Assay: cell-based or functional assay

B1 and B2 cannot be ordered by IC50, in vitro virus neutralization on MDCK cells: greater than 15 mg/L for the first, greater than 15 mg/L for the second.

B4 and B3 cannot be ordered by IC50, in vitro virus neutralization on MDCK cells: greater than 15 mg/L for the first, greater than 15 mg/L for the second.

Molecular target: HA of low pathogenic H7N1 (A/Ch/Italy/1067/1999), on infected MDCK cells or on virus (Influenza A virus H7N1 A/Ch/Italy/1067/1999 (host Chicken))
Assay: cell-based or functional assay

Point of comparison: B1, IC50, in vitro virus neutralization on MDCK cells 0.6 mg/L. Against it:
- B2 — higher, > 15 mg/L
- B4 — higher, > 15 mg/L
- B3 — 6-fold higher, 3.6 mg/L

Molecular target: HA of H5N1 A/turkey/Turkey/05 virus (Influenza A virus H5N1 A/turkey/Turkey/05)
Assay: cell-based or functional assay

Work on B1 yielded an IC50, in vitro virus neutralization on MDCK cells greater than 15 mg/L.

Molecular target: HA of Influenza H3N2 (A/Swine/St. Oedenrode/1996), on infected MDCK cells or on virus (Influenza A virus H3N2 A/Swine/St. Oedenrode/1996 (host Swine))
Assay: cell-based or functional assay

Point of comparison: B1, IC50, in vitro virus neutralization on MDCK cells 2.3 mg/L. Against it:
- B2 — higher, > 15 mg/L
- B4 — 6.1-fold higher, 14 mg/L
- B3 — 7.7-fold lower, 0.3 mg/L

Molecular target: HA of Influenza H3N2 (A/Netherlands/177/2008), on infected MDCK-SIAT cells or on virus (Influenza A virus H3N2 A/Netherlands/177/2008)
Assay: cell-based or functional assay

Point of comparison: B1, IC50, in vitro virus neutralization on MDCK-SIAT cells 0.17 mg/L. Against it:
- B2 — higher, > 50 mg/L
- B4 — 3.8-fold higher, 0.64 mg/L
- B3 — within 1.5-fold, 0.18 mg/L

Molecular target: HA of high pathogenic H7N7 (A/Ch/Neth/621557/03), on infected MDCK cells or on virus (Influenza A virus H7N7 A/Ch/Neth/621557/03 (host Chicken))
Assay: cell-based or functional assay

Point of comparison: B1, IC50, in vitro virus neutralization on MDCK cells 0.2 mg/L. Against it:
- B2 — higher, > 15 mg/L
- B4 — 2-fold higher, 0.4 mg/L
- B3 — 2-fold lower, 0.1 mg/L
